These results are taken from patent publication US20170240637A1 (Memorial Sloan Kettering, published 2017).

For assay [1], the target named is T1, 4Ig-B7H3 (human, UniProt Q5ZPR3 27-461, limits assumed).
T1 construct: also called 4Ig-B73H3
T1 sequence (looked up): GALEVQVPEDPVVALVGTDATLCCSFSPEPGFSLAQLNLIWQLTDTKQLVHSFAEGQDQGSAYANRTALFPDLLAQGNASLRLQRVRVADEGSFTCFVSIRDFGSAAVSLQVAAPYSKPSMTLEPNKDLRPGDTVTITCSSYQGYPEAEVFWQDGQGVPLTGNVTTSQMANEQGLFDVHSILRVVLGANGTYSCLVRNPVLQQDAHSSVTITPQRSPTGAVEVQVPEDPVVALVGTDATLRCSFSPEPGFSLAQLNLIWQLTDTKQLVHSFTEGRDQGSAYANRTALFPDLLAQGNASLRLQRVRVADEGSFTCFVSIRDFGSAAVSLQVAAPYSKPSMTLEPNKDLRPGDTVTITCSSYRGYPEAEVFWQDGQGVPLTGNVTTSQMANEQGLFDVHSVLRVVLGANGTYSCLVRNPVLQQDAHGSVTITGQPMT
Kind of assay: SPR (Biacore), scFv; antigen not given. As to the method: (§1) In brief, B7H3 antigen (either 2Ig-B7H3, 4Ig-B7H3, 2Ig-B7H3-mFc, 4Ig-B7H3-mFc), was directly immobilized onto the CM5 sensor chip via […]. Reference surface was set up for nonspecific binding and refractive index changes. For analysis of the kinetics of interactions, varying concentrations of scFvs were injected at flow rate of 30 μl/min using running buffer containing 10 mM HEPES, 150 mM NaCl, 3 mM EDTA, and 0.05% Surfactant P-20 (pH 7.4). The association and dissociation phase data were fitted simultaneously to a 1:1 model by using BIAevaluation 3.2. All the experiments were done at 25° C.

Assay [2] addresses T1, 4Ig-B7H3. Nature of the assay: SPR, IgG on 4Ig-B7-H3 without Fc fusion. As to the method: (§2) In brief, B7H3 antigen (either 2Ig-B7H3, 4Ig-B7H3, 2Ig-B7H3-mFc, 4Ig-B7H3-mFc), was directly immobilized onto the CM5 sensor chip via […]. Reference surface was set up for nonspecific binding and refractive index changes. […] The association and dissociation phase data were fitted simultaneously to a 1:1 model by using BIAevaluation 3.2. All the experiments were done at 25° C.
(SPR reads the build-up and loss of mass on a sensor chip optically.)

Assay [3] deals with T2, 2Ig-B7H3 without Fc fusion (human, UniProt Q5ZPR3-2 29-245, limits assumed).
T2 construct: also called 2IgB7H3 (R&D)
T2 sequence (looked up): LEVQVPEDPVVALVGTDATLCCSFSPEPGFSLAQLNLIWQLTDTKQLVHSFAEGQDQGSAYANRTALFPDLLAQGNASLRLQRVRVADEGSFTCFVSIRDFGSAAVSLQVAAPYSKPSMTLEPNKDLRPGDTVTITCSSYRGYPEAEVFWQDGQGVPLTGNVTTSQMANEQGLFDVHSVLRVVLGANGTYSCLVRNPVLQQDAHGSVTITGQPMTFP
Nature of the assay: SPR, IgG on 2Ig-B7-H3 without Fc fusion. The protocol: as §2

In assay [4] the target is T3, 4Ig-B7H3 fused to mouse Fc (B7H3-mFc) (human, UniProt Q5ZPR3 29-466, limits assumed, biotinylated on primary amines (NHS-biotin) in the experiment of paragraph 316).
T3 construct: Expressed in DG44 CHO cells; also called 4Ig-B7H3-Fc; 4Ig-B7H3-mFc; not shown: mouse Fc
T3 sequence (looked up): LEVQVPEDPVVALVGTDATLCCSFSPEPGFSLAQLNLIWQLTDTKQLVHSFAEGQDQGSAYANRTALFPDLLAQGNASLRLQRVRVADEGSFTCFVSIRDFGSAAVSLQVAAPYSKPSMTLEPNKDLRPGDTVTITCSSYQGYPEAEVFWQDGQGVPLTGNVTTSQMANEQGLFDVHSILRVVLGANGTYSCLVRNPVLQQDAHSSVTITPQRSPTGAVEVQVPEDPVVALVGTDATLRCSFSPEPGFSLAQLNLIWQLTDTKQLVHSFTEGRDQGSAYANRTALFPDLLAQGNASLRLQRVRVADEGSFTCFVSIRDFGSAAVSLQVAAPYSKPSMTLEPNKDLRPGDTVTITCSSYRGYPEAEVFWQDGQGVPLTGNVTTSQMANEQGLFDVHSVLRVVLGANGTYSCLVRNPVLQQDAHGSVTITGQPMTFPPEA
Nature of the assay: SPR, IgG on 4Ig-B7H3-Fc. As to the method: as §2

In another assay the target is T4, wild type 2Ig-B7H3-mFc (human, UniProt Q5ZPR3-2 29-248, limits assumed).
T4 construct: Q5ZPR3 canonical entry is the 4Ig isoform; the 2Ig form is its shorter isoform; also called 2Ig-B7H3-Fc; WT 2Ig-B7H3-Fc; not shown: mouse Fc
T4 sequence (looked up): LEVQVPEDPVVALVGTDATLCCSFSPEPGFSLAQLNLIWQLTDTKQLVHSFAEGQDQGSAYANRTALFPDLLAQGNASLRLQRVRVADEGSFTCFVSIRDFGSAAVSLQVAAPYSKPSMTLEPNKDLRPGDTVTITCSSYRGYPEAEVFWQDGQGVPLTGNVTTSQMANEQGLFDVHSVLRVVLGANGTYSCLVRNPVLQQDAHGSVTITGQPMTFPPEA
Nature of the assay: SPR, IgG on 2Ig-B7H3-mFc. The protocol: as §2

The target of assay [5] is T1, 4Ig-B7H3. Kind of assay: SPR, antigen on CM5 chip. The protocol:
as §1

Assay [6] deals with T1, 4Ig-B7H3. Nature of the assay: SPR (Biacore T-100), 4Ig-B7H3 on CM5 chip, scFv injected. As to the method:
as §1

Assay [7] concerns the target T1, 4Ig-B7H3. Nature of the assay: SPR.

Substitutions are numbered along the chain they refer to.

B1: hu8H9 5.1 scFv (scFv)
scFv: QVQLVQSGAEVVKPGASVKVSCKTSGYTFTNYDINWVRQRPGQGLEWIGWIFPGDDSTQYNEKFKGRVTMTTDTSTSTVYMELSSLRSEDTAVYFCARQTTGTWFAYWGQGTLVTVSSGGGGSGGGGSGGGGSEIVMTQSPATLSVSPGERVTLSCRASQSISDYLYWYQQKSHQAPRLLIKYASQSISGIPARFSGSGSGSEFTLTISSLQPEDFGVYYCQNGHSFPLTFGQGTKLELKR
notes: not shown: FLAG and His tags
In the assay with 4Ig-B7H3 [1], B1 returned a Kd of 1.7 nM, a koff of 9.84e-05 s⁻¹ and a kon of 58800 M⁻¹ s⁻¹.

B2: hu8H9 H3L3 IgG1 (antibody, V domains shown)
VH: QVQLVQSGAEVVKPGASVKLSCKASGYTFTNYDINWVRQRPEQGLEWIGWIFPGDGSTQYNEKFKGKATLTTDTSTSTAYMELSSLRSEDTAVYFCARQTTATWFAYWGQGTLVTVSS
VL: EIVMTQSPATLSVSPGERVSLSCRASQSISDYLHWYQQKSHESPRLLIKYASQSISGIPARFSGSGSGSEFTLTINSVEPEDVGVYYCQNGHSFPLTFGQGTKLELKR
Turning to B2, the Kd in the assay with 4Ig-B7H3 [2] was 33 nM; in assay [3] it was 45 nM; in assay [4], 6.6 nM; with wild type 2Ig-B7H3-mFc, 7.5 nM. Further, the koff in the assay with 4Ig-B7H3 [2] is 0.000677 s⁻¹; in assay [3], 0.000607 s⁻¹; in assay [4], 0.0452 s⁻¹; with wild type 2Ig-B7H3-mFc, 0.035 s⁻¹. The kon with 4Ig-B7H3 [2] is 20500 M⁻¹ s⁻¹; in assay [3], 13500 M⁻¹ s⁻¹; in assay [4] it was 6.83e+06 M⁻¹ s⁻¹; in the assay with wild type 2Ig-B7H3-mFc, 4.67e+06 M⁻¹ s⁻¹.

B3: hu8H9-H1L2 IgG1 (antibody, V domains shown)
VH: B2 VH with V12K, R40A, E42G
VL: B2 VL with S20T, S69T, L106I
B3: the figures for the Kd (with 4Ig-B7H3 [5]; in assay [4]; with wild type 2Ig-B7H3-mFc) were 34.8 nM, 42.7 nM and 68.4 nM, respectively. The koff was found to be 0.0239 s⁻¹ in assay [4] and 0.00116 s⁻¹ in the assay with wild type 2Ig-B7H3-mFc. For the same molecule, the values for the kon (in assay [4]; with wild type 2Ig-B7H3-mFc) were 560000 M⁻¹ s⁻¹ and 17000 M⁻¹ s⁻¹, respectively.

B4: hu8H9-H2L2 IgG1 (antibody, V domains shown)
VH: B2 VH with R40A, E42G, S85R, R87T
VL: B2 VL with S20T, S69T, L106I
On to B4, for which the Kd with 4Ig-B7H3 [5] amounted to 38.6 nM.

B5: hu8H9-H1L1 IgG1 (antibody, V domains shown)
VH: B2 VH with V12K, R40A, E42G
VL: B2 VL with S20T, S40P, H41G, E42Q, S43A, S69T, N76S, E79Q, L106I
On to B5, for which the affinity in the assay with 4Ig-B7H3 [5], expressed as Kd, was 112 nM.

B6: hu8H9-H2L1 IgG1 (antibody, V domains shown)
VH: B2 VH with R40A, E42G, S85R, R87T
VL: B2 VL with S20T, S40P, H41G, E42Q, S43A, S69T, N76S, E79Q, L106I
As for B6, binding with 4Ig-B7H3 [5] was characterised by a dissociation constant (Kd) of 34.8 nM.

B7: hu8H9 H3L3 scFv (scFv)
scFv: QVQLVQSGAEVVKPGASVKLSCKASGYTFTNYDINWVRQRPEQGLEWIGWIFPGDGSTQYNEKFKGKATLTTDTSTSTAYMELSSLRSEDTAVYFCARQTTATWFAYWGQGTLVTVSSGGGGSGGGGSGGGGSEIVMTQSPATLSVSPGERVSLSCRASQSISDYLHWYQQKSHESPRLLIKYASQSISGIPARFSGSGSGSEFTLTINSVEPEDVGVYYCQNGHSFPLTFGQGTKLELKR
notes: also called parental hu8H9 H3L3; not shown: FLAG and His tags
In the assay with 4Ig-B7H3 [6], B7 came in with a Kd of 144 nM, a koff of 0.000919 s⁻¹ and a kon of 6380 M⁻¹ s⁻¹. In the assay with 4Ig-B7H3 [1], the Kd was 144 nM, the koff came out at 0.000919 s⁻¹ and the kon is 6380 M⁻¹ s⁻¹.

B8: hu8H9 clone S7.29 scFv (scFv)
scFv: B7 scFv with A24T, E42G, M81L, R87G, A102G, S153T, H167Y
notes: not shown: FLAG and His tags
For B8, in the assay with 4Ig-B7H3 [7], the “fold affinity improvement against parental hu8H9 H3L3 scFv” value (“fold affinity improvement” for short) was greater than 50 fold. In the assay with 4Ig-B7H3 [6], this molecule returned a Kd of 2.7 nM, a koff of 0.000152 s⁻¹ and a kon of 55900 M⁻¹ s⁻¹.

B9: hu8H9 clone S7.17 scFv (scFv)
scFv: B7 scFv with A24T, E42G, I48V, A102S, S153T, S161P, H167Y, H225Y
notes: not shown: FLAG and His tags
On to B9, for which, in the assay with 4Ig-B7H3 [7], the “fold affinity improvement” value was greater than 50 fold. In the assay with 4Ig-B7H3 [6], the Kd was found to be 2.2 nM, the koff amounted to 0.000113 s⁻¹ and the kon is 51000 M⁻¹ s⁻¹.

B10: hu8H9 3.1 scFv (scFv)
scFv: B7 scFv with A24T, E42G, G56D, A102G, S153T, H167Y
notes: not shown: FLAG and His tags
In the assay with 4Ig-B7H3 [1], B10 registered an equilibrium dissociation constant (Kd) of 0.92 nM, a koff of 9.52e-05 s⁻¹ and a kon of 104000 M⁻¹ s⁻¹.

B11: hu8H9 clone S7.22 scFv (scFv)
scFv: B7 scFv with A24T, E42G, G56D, S88P, A102G, S153T, H167Y, S189P
notes: not shown: FLAG and His tags
Turning to B11, in the assay with 4Ig-B7H3 [7], the “fold affinity improvement” value was greater than 50 fold and the “fold binding improvement against parental hu8H9 H3L3 scFv” value was greater than 100 fold. Besides, in the assay with 4Ig-B7H3 [6], the Kd worked out at 1.2 nM, the koff is 9.99e-05 s⁻¹ and the association rate constant (kon) amounted to 86100 M⁻¹ s⁻¹.

B12: hu8H9 clone S7.2 scFv (scFv)
scFv: B7 scFv with V18C, A24T, E42G, G131V, S153T, S163G, H167Y
notes: not shown: FLAG and His tags
In the assay with 4Ig-B7H3 [6], B12 showed a Kd of 5.6 nM, a koff of 0.000143 s⁻¹ and a kon of 25400 M⁻¹ s⁻¹.

B13: hu8H9 4.1 scFv (scFv)
scFv: B1 scFv with T24A, G42E, D56G, G102A, Y167H
notes: not shown: FLAG and His tags
In the assay with 4Ig-B7H3 [1], B13 had a Kd of 45.7 nM, a koff of 0.000557 s⁻¹ and a kon of 12200 M⁻¹ s⁻¹.

B14: hu8H9 clone S7.28 scFv (scFv)
scFv: B7 scFv with A24T, E42G, R87G, A97T, G129S, S153T, S163G, H167Y
notes: not shown: FLAG and His tags
In the assay with 4Ig-B7H3 [6], B14 displayed a Kd of 277 nM, a koff of 0.00132 s⁻¹ and a kon of 4750 M⁻¹ s⁻¹.

Broadly, the Kd is the free concentration of one partner at which half of the binding sites on the other are occupied at equilibrium, for simple one-to-one binding. For orientation: koff means the rate constant with which the complex falls apart. A higher koff goes with a short-lived complex. By kon is commonly meant a measure of how fast the partners come together. Lower therefore signals slow association.
